Results from publication PMC6602413.

Key:
[1] = target: T1, Strep-RapZ (Escherichia coli (K-12?)) (UniProt P0A894); test: EMSA; conditions: 10 mM Tris-HCl pH 7.0, 100 mM KCl, 10 mM MgCl2, 1 ug yeast tRNA per 10 ul, 30 min at 30 C (competition 15 + 15 min); native 6% PAGE at 4 C
T1 sequence: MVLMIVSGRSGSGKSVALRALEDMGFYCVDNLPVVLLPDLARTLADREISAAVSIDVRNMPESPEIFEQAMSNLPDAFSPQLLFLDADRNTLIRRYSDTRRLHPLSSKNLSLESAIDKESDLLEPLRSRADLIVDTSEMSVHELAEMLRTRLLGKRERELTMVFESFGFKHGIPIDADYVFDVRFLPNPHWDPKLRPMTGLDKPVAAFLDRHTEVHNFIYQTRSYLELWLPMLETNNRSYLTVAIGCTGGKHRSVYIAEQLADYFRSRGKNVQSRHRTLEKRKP

[2] = target: T1, Strep-RapZ (Escherichia coli (K-12?)); test: competition; conditions: 10 mM Tris-HCl pH 7.0, 100 mM KCl, 10 mM MgCl2, 1 ug yeast tRNA per 10 ul, 30 min at 30 C (competition 15 + 15 min); native 6% PAGE at 4 C

Sequence | binding [1] | binding [2]
GGGAGAGUAGAUGCUCAUUCCAUCUCUUAUGUUCGCCUUAGUGCCUCAUAAACUCCGGAAUGACGCAGAGCCGUUUACGGUGCUUAUCGUCCACUGACAGAUGUCGCUUAUGCCUCAUCAGACACCAUGGACACAACGUUGAGUGAAGCACCCACUUGUUG [GlmZ* (processed GlmZ)] | binds | binds
GGGAGAGUAGAUGCUCAUUCCAUCUCUUAUGUUCGCCUUAGUGCCUCAUAAACUCCGGAAUGACGCAGAGCCGUUUACGGUGCUUAUCGUCCACUGACAGAUGUCGCUUAUGCCUCAUCAGACACCAUGGACACAACGUUGAGUGAAGCACCCACUUGUUGUCAUACAGACCUGUUUUAACGCCUGCUCCGUAAUAAGAGCAGGCGUUUUUUU [GlmZ full-length] | binds | binds
